We go through three molecules from US20170158767A1 (published 2017).

Experiment [1] deals with T1, human PD-L1 expressed at the cell surface (human, UniProt Q9NZQ7 19-290).
T1 construct: whole, on cells; also called cell surface PD-L1; full-length human PD-L1 on transfected CHO cells
Description: flow cytometry on CHO cells transfected with human PD-L1 (FIG. 32B). The method, then: (§1) Chinese hamster ovary (CHO) cell lines that express recombinant human PD-L1 at the cell surface were developed and used to determine the specificity of PD-L1 human monoclonal antibodies by flow cytometry. CHO cells were transfected with expression plasmids containing full length cDNA encoding transmembrane forms of PD-L1. […] The cells were washed and binding was detected with a FITC-labeled anti-human IgG Ab. Flow cytometric analyses were performed using a FACScan flow cytometry (Becton Dickinson, San Jose, Calif.). The binding was compared to the parent CHO cell line. […] Binding was also tested using varying concentrations of an anti-PD-L1 antibody.
For orientation: A flow cytometer gives signals particle by particle.

Experiment [2] has as its target T1, human PD-L1 expressed at the cell …. In words: flow cytometry, serial dilutions on anti-CD3-activated human T cells. The method, then:
Human or monkey T cells were activated by anti-CD3 antibody to induce PD-L1 expression prior to binding with a human anti-PD-L1 monoclonal antibody. […] An isotype control antibody was used as a negative control. The cells were washed and binding was detected with a FITC-labeled anti-human Ig-kappa light chain Ab. Flow cytometric analyses were performed using a FACScalibur flow cytometer (Becton Dickinson, San Jose, Calif.).

Experiment [3] shares this target. Description: flow cytometry on CHO cells transfected with human PD-L1 (FIG. 32A). The method, then:
as §1

T1 sequence (Q9NZQ7 19-290): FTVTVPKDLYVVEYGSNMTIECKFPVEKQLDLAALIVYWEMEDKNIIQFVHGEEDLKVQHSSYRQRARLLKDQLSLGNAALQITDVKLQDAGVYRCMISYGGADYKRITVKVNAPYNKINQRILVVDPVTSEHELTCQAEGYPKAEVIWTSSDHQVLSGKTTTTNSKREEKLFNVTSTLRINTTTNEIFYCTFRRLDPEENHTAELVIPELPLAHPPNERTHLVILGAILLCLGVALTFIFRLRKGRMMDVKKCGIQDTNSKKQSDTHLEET

B1: 10A5 human monoclonal antibody (antibody, V domains shown)
VH: QVQLVQSGAEVKKPGASVKVSCKASGYTFTSYDVHWVRQAPGQRLEWMGWLHADTGITKFSQKFQGRVTITRDTSASTAYMELSSLRSEDTAVYYCARERIQLWFDYWGQGTLVTVSS
VL: DIQMTQSPSSLSASVGDRVTITCRASQGISSWLAWYQQKPEKAPKSLIYAASSLQSGVPSRFSGSGSGTDFTLTISSLQPEDFATYYCQQYNSYPYTFGQGTKLEIK
notes: Fully human IgG kappa from a KM mouse hybridoma; also called HuMAb 10A5
As to B1, the binding result in experiment [1] is listed as “binds”.

B2: 1B12 human monoclonal antibody (antibody, V domains shown)
VH: QVQLVQSGAEVKKPGSSVKVSCKTSGDTFSSYAISWVRQAPGQGLEWMGGIIPIFGRAHYAQKFQGRVTITADESTSTAYMELSSLRSEDTAVYFCARKFHFVSGSPFGMDVWGQGTTVTVSS
VL: not shown
notes: Fully human IgG kappa from a KM mouse hybridoma
Consider B2, for which the binding result in experiment [2] is on record as “binds”.

B3: 3G10 human monoclonal antibody (antibody, V domains shown)
VH: QVQLVQSGAEVKKPGASVKVSCKASGYTFTDYGFSWVRQAPGQGLEWMGWITAYNGNTNYAQKLQGRVTMTTDTSTSTVYMELRSLRSDDTAVYYCARDYFYGMDVWGQGTTVTVSS
VL: EIVLTQSPATLSLSPGERATLSCRASQSVSSYLVWYQQKPGQAPRLLIYDASNRATGIPARFSGSGSGTDFTLTISSLEPEDFAVYYCQQRSNWPRTFGQGTKVEIK
notes: Fully human IgG kappa from a KM mouse hybridoma; also called HuMAb 3G10
As to B3, the binding result in experiment [3] is given as “binds”.
